# Publication PMC5740061 (Nature Communications, 2017)
# B1: SDGF-TB1G1 (TB1G1 displayed on 293F cells) [designed binder] / Biotinylated His-Avi-TEAD1(194–411) [modified: biotin (BirA-500 kit); biotin (BirA-500 kit)] [not stated] (parent complex)
# chain 1: PDEYIERAKECCKKGDIQCCLRYFEESGDPNVMLICLFCP
# chain 2: RSIGTTKLRLVEFSAFLEQQRDPDSYNKHLFVHIGHANHSYSDPLLESVDIRQIYDKFPEKKGGLKELFGKGPQNAFFLVKFWADLNCNIQDDAGAFYGVTSQYESSENMTVTCSTKVCSFGKQVVEKVETEYARFENGRFVYRINRSPMCEYMINFIHKLKHLPEKYMMNSVLENFTILLVVTNRDTQETLLCMACVFEVSNSEHGAQHHIYRLVKD
# Variants of: B1
# Experiment: mammalian (293F) surface display of a site-saturation mutagenesis library (every non-Cys single substitution), FACS sorting on biotinylated TEAD1 YBD, two sorting rounds, Illumina sequencing with perfect-match mapping; 20 nM biotinylated TEAD, monovalent 2-step stain (TEAD alone 30 min at 4 °C, dilute, pellet, then 20 nM streptavidin-Alexa Fluor 647), flow sorting on a BD Aria
row,Variant,enrichment
1,chain 1 PDEYIERAEECCKKGDIQCCLRYFEESGDPNVMLICLFCP [chain 1 K9E],"3.95 log2 (fold change of variant abundance after two TEAD sorts vs input, normalised to TB1G1)"
2,chain 1 PDEYITRAKECCKKGDIQCCLRYFEESGDPNVMLICLFCP [chain 1 E6T],"-0.921 log2 (fold change of variant abundance after two TEAD sorts vs input, normalised to TB1G1)"
3,chain 1 PDEYIIRAKECCKKGDIQCCLRYFEESGDPNVMLICLFCP [chain 1 E6I],"-1.56 log2 (fold change of variant abundance after two TEAD sorts vs input, normalised to TB1G1)"
4,chain 1 PDEYIARAKECCKKGDIQCCLRYFEESGDPNVMLICLFCP [chain 1 E6A],"-0.676 log2 (fold change of variant abundance after two TEAD sorts vs input, normalised to TB1G1)"
5,chain 1 PDEYIVRAKECCKKGDIQCCLRYFEESGDPNVMLICLFCP [chain 1 E6V],"-1.55 log2 (fold change of variant abundance after two TEAD sorts vs input, normalised to TB1G1)"
6,chain 1 PDEYIMRAKECCKKGDIQCCLRYFEESGDPNVMLICLFCP [chain 1 E6M],"-2.04 log2 (fold change of variant abundance after two TEAD sorts vs input, normalised to TB1G1)"
7,chain 1 PDEYISRAKECCKKGDIQCCLRYFEESGDPNVMLICLFCP [chain 1 E6S],"-1.09 log2 (fold change of variant abundance after two TEAD sorts vs input, normalised to TB1G1)"
8,chain 1 PDEYILRAKECCKKGDIQCCLRYFEESGDPNVMLICLFCP [chain 1 E6L],"-0.404 log2 (fold change of variant abundance after two TEAD sorts vs input, normalised to TB1G1)"
9,chain 1 PDEYIYRAKECCKKGDIQCCLRYFEESGDPNVMLICLFCP [chain 1 E6Y],"-2.33 log2 (fold change of variant abundance after two TEAD sorts vs input, normalised to TB1G1)"
10,chain 1 PDEYRERAKECCKKGDIQCCLRYFEESGDPNVMLICLFCP [chain 1 I5R],"-3.27 log2 (fold change of variant abundance after two TEAD sorts vs input, normalised to TB1G1)"
11,chain 1 PDEYVERAKECCKKGDIQCCLRYFEESGDPNVMLICLFCP [chain 1 I5V],"-0.274 log2 (fold change of variant abundance after two TEAD sorts vs input, normalised to TB1G1)"
12,chain 1 PDEYAERAKECCKKGDIQCCLRYFEESGDPNVMLICLFCP [chain 1 I5A],"-1.2 log2 (fold change of variant abundance after two TEAD sorts vs input, normalised to TB1G1)"
13,chain 1 PDEYMERAKECCKKGDIQCCLRYFEESGDPNVMLICLFCP [chain 1 I5M],"-1.87 log2 (fold change of variant abundance after two TEAD sorts vs input, normalised to TB1G1)"
14,chain 1 PDEYGERAKECCKKGDIQCCLRYFEESGDPNVMLICLFCP [chain 1 I5G],"-3.97 log2 (fold change of variant abundance after two TEAD sorts vs input, normalised to TB1G1)"
15,chain 1 PDEYWERAKECCKKGDIQCCLRYFEESGDPNVMLICLFCP [chain 1 I5W],"-7.46 log2 (fold change of variant abundance after two TEAD sorts vs input, normalised to TB1G1)"
16,chain 1 PDEYKERAKECCKKGDIQCCLRYFEESGDPNVMLICLFCP [chain 1 I5K],"-1.5 log2 (fold change of variant abundance after two TEAD sorts vs input, normalised to TB1G1)"
17,chain 1 PDEYFERAKECCKKGDIQCCLRYFEESGDPNVMLICLFCP [chain 1 I5F],"-8.36 log2 (fold change of variant abundance after two TEAD sorts vs input, normalised to TB1G1)"
18,chain 1 PDEYLERAKECCKKGDIQCCLRYFEESGDPNVMLICLFCP [chain 1 I5L],"-0.381 log2 (fold change of variant abundance after two TEAD sorts vs input, normalised to TB1G1)"
19,chain 1 PDEYNERAKECCKKGDIQCCLRYFEESGDPNVMLICLFCP [chain 1 I5N],"-1.34 log2 (fold change of variant abundance after two TEAD sorts vs input, normalised to TB1G1)"

row,Variant,enrichment
1,chain 1 EDEYIERAKECCKKGDIQCCLRYFEESGDPNVMLICLFCP [chain 1 P1E],"1.12 log2 (fold change of variant abundance after two TEAD sorts vs input, normalised to TB1G1)"
2,chain 1 HDEYIERAKECCKKGDIQCCLRYFEESGDPNVMLICLFCP [chain 1 P1H],"-0.884 log2 (fold change of variant abundance after two TEAD sorts vs input, normalised to TB1G1)"
3,chain 1 QDEYIERAKECCKKGDIQCCLRYFEESGDPNVMLICLFCP [chain 1 P1Q],"-0.836 log2 (fold change of variant abundance after two TEAD sorts vs input, normalised to TB1G1)"
4,chain 1 FDEYIERAKECCKKGDIQCCLRYFEESGDPNVMLICLFCP [chain 1 P1F],"-1.3 log2 (fold change of variant abundance after two TEAD sorts vs input, normalised to TB1G1)"
5,chain 1 KDEYIERAKECCKKGDIQCCLRYFEESGDPNVMLICLFCP [chain 1 P1K],"-0.294 log2 (fold change of variant abundance after two TEAD sorts vs input, normalised to TB1G1)"
6,chain 1 IDEYIERAKECCKKGDIQCCLRYFEESGDPNVMLICLFCP [chain 1 P1I],"-2.27 log2 (fold change of variant abundance after two TEAD sorts vs input, normalised to TB1G1)"
7,chain 1 PDEYIEGAKECCKKGDIQCCLRYFEESGDPNVMLICLFCP [chain 1 R7G],"1.31 log2 (fold change of variant abundance after two TEAD sorts vs input, normalised to TB1G1)"
8,chain 1 PDEYIEHAKECCKKGDIQCCLRYFEESGDPNVMLICLFCP [chain 1 R7H],"-0.322 log2 (fold change of variant abundance after two TEAD sorts vs input, normalised to TB1G1)"
9,chain 1 PDEYIEKAKECCKKGDIQCCLRYFEESGDPNVMLICLFCP [chain 1 R7K],"0.473 log2 (fold change of variant abundance after two TEAD sorts vs input, normalised to TB1G1)"
10,chain 1 PDEYIEPAKECCKKGDIQCCLRYFEESGDPNVMLICLFCP [chain 1 R7P],"-2.49 log2 (fold change of variant abundance after two TEAD sorts vs input, normalised to TB1G1)"
11,chain 1 PDEYIEQAKECCKKGDIQCCLRYFEESGDPNVMLICLFCP [chain 1 R7Q],"-0.484 log2 (fold change of variant abundance after two TEAD sorts vs input, normalised to TB1G1)"
12,chain 1 PDEYIEYAKECCKKGDIQCCLRYFEESGDPNVMLICLFCP [chain 1 R7Y],"-1.01 log2 (fold change of variant abundance after two TEAD sorts vs input, normalised to TB1G1)"
13,chain 1 PDEYIEDAKECCKKGDIQCCLRYFEESGDPNVMLICLFCP [chain 1 R7D],"-2.25 log2 (fold change of variant abundance after two TEAD sorts vs input, normalised to TB1G1)"
14,chain 1 PDEYIESAKECCKKGDIQCCLRYFEESGDPNVMLICLFCP [chain 1 R7S],"0.311 log2 (fold change of variant abundance after two TEAD sorts vs input, normalised to TB1G1)"
15,chain 1 PDEYIENAKECCKKGDIQCCLRYFEESGDPNVMLICLFCP [chain 1 R7N],"0.343 log2 (fold change of variant abundance after two TEAD sorts vs input, normalised to TB1G1)"
16,chain 1 PDEYIEVAKECCKKGDIQCCLRYFEESGDPNVMLICLFCP [chain 1 R7V],"-2.31 log2 (fold change of variant abundance after two TEAD sorts vs input, normalised to TB1G1)"
17,chain 1 PDEYIEFAKECCKKGDIQCCLRYFEESGDPNVMLICLFCP [chain 1 R7F],"-1.04 log2 (fold change of variant abundance after two TEAD sorts vs input, normalised to TB1G1)"
18,chain 1 PDEYIERAKECCKKGDIQCCLRYFEESGDPNVILICLFCP [chain 1 M33I],"-3.16 log2 (fold change of variant abundance after two TEAD sorts vs input, normalised to TB1G1)"

# Variants of: B1
# Experiment: not given
row,ratio to parent,Variant
1,~0.07,chain 1 E25A
2,~0.01,chain 1 M33A
